Reference: patent US8192734B2, “Compositions and methods for bone strengthening” (Cornell University, priority 2007, dated 2012)
Like-named read-outs stand apart in the source and are kept apart here. Marks after values point to notes of the source that are not given here.

Tests used:
[1] = test system: weanling pigs fed high P diet; assay: Examples 4-8: cortical and cancellous bone ash and mineral profile; format: in vivo, pig; conditions: 8 wk
Description: (§1) As in Examples 1-3, the animal protocol was approved by Cornell Animal Care and Use Committee. An 8-week feeding trial was conducted at Cornell University Swine Research Farm. Thirty weanling pigs (Yorkshire×Hampshire×Landrace, body weight=8.6±0.5 kg) were allocated into three groups (n=10). […] were fed a corn-soy basal diet (BD)+0.25% inorganic phosphorus (iP, dicalcium phosphate). Group 2 were fed BD+0.35% iP. Group 3 were fed BD+0.35% iP+3,400 units of phytase/kg (Escherichia coli appA2, OptiPhos, JBS United, Inc., Sheridan, Ind.). The BD (Table 7) contained adequate levels of all nutrients except for P^(63), and 0.25% iP is the supplementation level recommended by NRC^(24) to meet the P needs of this age of pigs. […] Pigs were housed in an environmentally-controlled barn (20-25° C.; 12-light: 12-dark cycle), and given free access to feed and water.
(§2) After the above mechanical tests, midshaft sections of both femur and metacarpus were cut and washed with de-ionized water. The cortical thickness of both bones was measured by slide caliper in the midshaft. Cortical and cancellous bones were separated for total ash and mineral analysis. A 3-cm long and 3-mm thick midshaft of femur and 1-cm long and 1.5-mm thick midshaft of metacarpus were used for cortical ash analysis. For cancellous bone, sponge-like bone from 3-cm below the growth plate of femur and 1.5-cm below the growth plate of metacarpus were collected. For ash analysis, bones were oven-dried at 110° C. for 24 h, and incinerated in a muffle furnace at 550° C. for 96 h. Concentrations of individual elements in the ash were measured using inductively coupled argon plasma spectrophotometer (ICAP 61E Trace Analyzer, Thermo Jarell Ash corporation, Franklin, Mass.)^(63), and were expressed on ash basis.

[2] = test system: weanling pigs fed high P diet; assay: as above; format: in vivo, pig; conditions: 8 wk, 0.35% iP + Sr 50 mg/kg + phytase 3,400 U/kg
[3] = test system: weanling pigs fed high P diet; assay: Examples 4-8: femoral and metacarpal mechanical properties, dimensions, cortical thickness; format: in vivo, pig; conditions: 8 wk
Description: as §1, with “Thirty weanling pigs (Yorkshire×Hampshire×Landrace, body weight=8.6±0.5 kg) were allocated into three groups (n=10).” left out, “Group 3 were fed BD+0.35% iP+3,400 units of phytase/kg (Escherichia coli appA2, OptiPhos, JBS United, Inc., Sheridan, Ind.).” left out
Growth performance of pigs was monitored at two week intervals. Blood samples of all individual pigs (fasted overnight for 8 h) were collected at initial (week 0) and then bi-weekly from the anterior vena cava using 5-mL heparin syringes to assay for concentrations of plasma iP^(73), Ca and Sr^(63). At the end of experiment, 5 pigs (2 male and 3 female) from each group were killed by electrical stunning and exsanguination. Both left and front right legs from each animal were removed from the body.
After the skin and major muscles were removed, two left legs were subjected to X-ray radiography using a Faxitron machine (Model 43855A; Hewlett Packard, McMinnville, Oreg., USA). Bone radiographs of femur and metacarpals were quantified by the kodac software. The software counted the total number of pixels. Thereafter, the 3rd and 4th metacarpals and femurs were collected to measure length, weight, height, and width after removing the remaining muscle and connective tissue. After the X-ray analysis, the two left legs were used for bone mechanical and mineral testing. Bone mechanical properties were determined by a three-point bending test (ASAE Standard S459 1992) using an Instron 4500 Machine Universal Testing Instrument (Model 1122, Instron, Canton, Mass.) with Instron Series IX Automated Materials Testing System Software (version 4.05). During testing, force was applied to the center of the bone held by supports 2.0 cm apart for metacarpals and 3.3 cm apart for femurs. The crosshead speed was set at 50 mm/min and the sampling rate was at 10 points/sec. The extrinsic parameters (stiffness/slope, maximum load, energy to break, maximum displacement) were derived from the force-displacement curve. Bone breaking strength was calculated with the adjustment of bone weight, and the average strength of the 3rd and 4th metacarpal was used as the metacarpal strength for each pig.
as §2

[4] = Expt 2, plasma, phytase 2000 U/kg and/or Sr 50 mg/kg
Description: Pigs were penned in an environmentally controlled barn (20-25° C.; 12 h light: 12 h dark cycle), and were allowed free access to feed and water.
Blood samples of individual pigs were collected at initial (wk 0) and then weekly from the anterior vena cava into heparinized tubes after an overnight fast (8 h). The collected whole blood samples were chilled on ice and centrifuged at 3,000×g (GS-6KR centrifuge, Beckman Instruments Inc.) for 10 min at 4° C. to prepare plasma for assays of inorganic P concentrations and alkaline phosphatase activity.
The hydrolysis of p-nitrophenol phosphate to p-nitrophenol was used to measure plasma alkaline phosphatase activity^(27). The enzyme unit was defined as 1 μmol of p-nitrophenol released per minute at 30° C.

[5] = 0.35% iP + Sr 50 mg/kg + phytase 3,400 U/kg, P<0.01
[6] = 0.35% iP + Sr 50 mg/kg + phytase 3,400 U/kg, P<0.05

B1: Phytase: Escherichia coli AppA2 phytase (OptiPhos, JBS United, Inc.), added to diets at feed mixing; AppA2 is SEQ ID NO: 2 (protein, listed as Escherichia coli)
chain: MKAILIPFLSLLIPLTPQSAFAQSEPELKLESVVIVSRHGVRAPTKATQLMQDVTPDAWPTWPVKLGWLTPRGGELIAYLGHYQRQRLVADGLLAKKGCPQPGQVAIIADVDERTRKTGEAFAAGLAPDCAITVHTQADTSSPDPLFNPLKTGVCQLDNANVTDAILSRAGGSIADFTGHRQTAFRELERVLNFSQLNLCLNREKQDESCSLTQALPSELKVSADNVSLTGAVSLASMLTEIFLLQQAQGMPEPGWGRITDSHQWNTLLSLHNAQFYLLQRTPEVARSRATPLLDLIMAALTPHPPQKQAYGVTLPTSVLFIAGHDTNLANLGGALELNWTLPGQPDNTPPGGELVFERWRRLSDNSQWIQVSLVFQTLQQMRDKTPLSLNTPPGEVKLTLAGCEERNAQGMCSLAGFTQIVNEARIPACSL
decrease of P concentration in cancellous bones, femur and metacarpus ([1]; 0.35% iP + Sr 50 mg/kg + phytase 3,400 U/kg): 22 to 31%
elevation of Sr concentration in cancellous bone, metacarpus ([1]; 0.35% iP + Sr 50 mg/kg + phytase 3,400 U/kg, P<0.002): 115 fold
enhancement of cancellous bone ash of femur [1, 5]: 12%
enhancement of cancellous bone ash of metacarpus [1, 5]: 5%
increase of total ash concentration of cortical bone, metacarpals [1, 5]: 3%
increase in Fe concentration of cancellous bone, femur [1, 6]: 33%
Femur cancellous bone Ca ([1]; 0.35% iP + phytase 3400 U, n=5): 311.0^b g/Kg ash
Femur cancellous bone Cr ([1]; 0.35% iP + phytase 3400 U, n=5): 10.0 mg/kg ash
Femur cancellous bone Fe ([1]; 0.35% iP + phytase 3400 U, n=5): 75.6^a mg/kg ash
Femur cancellous bone Mg ([1]; 0.35% iP + phytase 3400 U, n=5): 6.0^b g/Kg ash
Femur cancellous bone Na ([1]; 0.35% iP + phytase 3400 U, n=5): 8.3^b g/Kg ash
Femur cancellous bone P ([1]; 0.35% iP + phytase 3400 U, n=5): 155.0^b g/Kg ash
Femur cancellous bone S ([1]; 0.35% iP + phytase 3400 U, n=5): 1833.2^b mg/kg ash
Femur cancellous bone Sr ([1]; 0.35% iP + phytase 3400 U, n=5): 93680.7^a mg/kg ash
Femur cancellous bone Zn ([1]; 0.35% iP + phytase 3400 U, n=5): 395.7^a mg/kg ash
Femur compact bone Ca ([1]; 0.35% iP + phytase 3400 U, n=5): 403.0 g/Kg ash
Femur compact bone Cr ([1]; 0.35% iP + phytase 3400 U, n=5): 12.6 mg/kg ash
Femur compact bone Fe ([1]; 0.35% iP + phytase 3400 U, n=5): 25.1 mg/kg ash
Femur compact bone Mg ([1]; 0.35% iP + phytase 3400 U, n=5): 7.6 g/Kg ash
Femur compact bone Na ([1]; 0.35% iP + phytase 3400 U, n=5): 9.4 g/Kg ash
Femur compact bone P ([1]; 0.35% iP + phytase 3400 U, n=5): 199.0 g/Kg ash
Femur compact bone S ([1]; 0.35% iP + phytase 3400 U, n=5): 649.9^b mg/kg ash
Femur compact bone Sr ([1]; 0.35% iP + phytase 3400 U, n=5): 568.8^b mg/kg ash
Femur compact bone Zn ([1]; 0.35% iP + phytase 3400 U, n=5): 278.8 mg/kg ash
Metacarpus cancellous bone Ca ([1]; 0.35% iP + phytase 3400 U, n=5): 329.0^b g/kg ash
Metacarpus cancellous bone Cr ([1]; 0.35% iP + phytase 3400 U, n=5): 10.7 mg/kg ash
Metacarpus cancellous bone Fe ([1]; 0.35% iP + phytase 3400 U, n=5): 66.4^a mg/kg ash
Metacarpus cancellous bone Mg ([1]; 0.35% iP + phytase 3400 U, n=5): 6.0 g/kg ash
Metacarpus cancellous bone Na ([1]; 0.35% iP + phytase 3400 U, n=5): 7.6^b g/kg ash
Metacarpus cancellous bone P ([1]; 0.35% iP + phytase 3400 U, n=5): 161.0^b g/kg ash
Metacarpus cancellous bone S ([1]; 0.35% iP + phytase 3400 U, n=5): 1334.5^b mg/kg ash
Metacarpus cancellous bone Sr ([1]; 0.35% iP + phytase 3400 U, n=5): 86221.0^a mg/kg ash
Metacarpus cancellous bone Zn ([1]; 0.35% iP + phytase 3400 U, n=5): 334.3 mg/kg ash
Metacarpus compact bone Ca ([1]; 0.35% iP + phytase 3400 U, n=5): 398.0 g/Kg ash
Metacarpus compact bone Cr ([1]; 0.35% iP + phytase 3400 U, n=5): 13.3 mg/kg ash
Metacarpus compact bone Fe ([1]; 0.35% iP + phytase 3400 U, n=5): 24.7 mg/kg ash
Metacarpus compact bone Mg ([1]; 0.35% iP + phytase 3400 U, n=5): 7.2 g/Kg ash
Metacarpus compact bone Na ([1]; 0.35% iP + phytase 3400 U, n=5): 8.6 g/Kg ash
Metacarpus compact bone P ([1]; 0.35% iP + phytase 3400 U, n=5): 195.0 g/Kg ash
Metacarpus compact bone S ([1]; 0.35% iP + phytase 3400 U, n=5): 763.8^b mg/kg ash
Metacarpus compact bone Sr ([1]; 0.35% iP + phytase 3400 U, n=5): 541.4^b mg/kg ash
Metacarpus compact bone Zn ([1]; 0.35% iP + phytase 3400 U, n=5): 307.7 mg/kg ash
increases in Sr concentration in cancellous bones of femur and metacarpus vs 0.35% iP ([1]; phytase 3,400 U/kg into the 0.35% iP diet): > 100 fold
decrease of Ca concentration in cancellous bones, femur and metacarpus [2]: 11 to 19%
total ash concentration of cortical bone, femurs [2]: not altered
elevation of Sr concentration in cancellous bone, femur ([2]; P<0.002): 127 fold
increase in Fe concentration of cancellous bone, metacarpus ([2]; P<0.05): 22%
greater cortical bone thickness of femur vs 0.35% iP [3, 6]: 32%
greater cortical bone thickness of metacarpus vs 0.35% iP [3, 6]: 7%
greater energy to break of femur vs 0.35% iP [3, 6]: 26%
greater energy to break of metacarpus vs 0.35% iP [3, 6]: 14%
greater maximal load of femur vs 0.35% iP [3, 6]: 38%
greater maximal load of metacarpus vs 0.35% iP [3, 6]: 20%
greater stiffness of femur vs 0.35% iP [3, 6]: 12%
greater stiffness of metacarpus vs 0.35% iP [3, 6]: 8%
femoral Cross-sectional area ([3]; 0.35% iP + phytase 3400 U, n=5): 199.7 mm^2
femoral Height ([3]; 0.35% iP + phytase 3400 U, n=5): 21.8 mm
femoral Length ([3]; 0.35% iP + phytase 3400 U, n=5): 143.7 mm
femoral Max. Displacement ([3]; 0.35% iP + phytase 3400 U, n=5): 4.9 mm
femoral Weight ([3]; 0.35% iP + phytase 3400 U, n=5): 202.2 g
femoral Width ([3]; 0.35% iP + phytase 3400 U, n=5): 23.3 mm
metacarpal Height ([3]; 0.35% iP + phytase 3400 U, n=5): 14.8 mm
metacarpal Length ([3]; 0.35% iP + phytase 3400 U, n=5): 60.5 mm
metacarpal Max. Displacement ([3]; 0.35% iP + phytase 3400 U, n=5): 8.9 mm
metacarpal Weight ([3]; 0.35% iP + phytase 3400 U, n=5): 19.2 g
metacarpal Width ([3]; 0.35% iP + phytase 3400 U, n=5): 15.0 mm
Alkaline phosphatase activity ([4]; week 0 (initial)): 202.1 U/L
Alkaline phosphatase activity ([4]; week 5 (final)): 149.9 U/L
